This is an account of results in publication PMC4464401, “Biochemical properties and yields of diverse bacterial laccase-like multicopper oxidases expressed in Escherichia coli” (Scientific Reports, 2015).

As usually defined, the Km is the substrate concentration at which the rate is half of its maximum. For orientation: kcat means the number of substrate molecules converted per active site and unit of time at saturation.

Experiment in all cases: spectrophotometric oxidation, Michaelis-Menten fit with uncompetitive substrate inhibition
One data set concerns the target T1, B. coagulans LMCO (CotA) (Heyndrickxia coagulans, UniProt A0AAN0WB15).
T1 construct: gene SB48_HM08orf01352
T1 sequence (A0AAN0WB15 1-522): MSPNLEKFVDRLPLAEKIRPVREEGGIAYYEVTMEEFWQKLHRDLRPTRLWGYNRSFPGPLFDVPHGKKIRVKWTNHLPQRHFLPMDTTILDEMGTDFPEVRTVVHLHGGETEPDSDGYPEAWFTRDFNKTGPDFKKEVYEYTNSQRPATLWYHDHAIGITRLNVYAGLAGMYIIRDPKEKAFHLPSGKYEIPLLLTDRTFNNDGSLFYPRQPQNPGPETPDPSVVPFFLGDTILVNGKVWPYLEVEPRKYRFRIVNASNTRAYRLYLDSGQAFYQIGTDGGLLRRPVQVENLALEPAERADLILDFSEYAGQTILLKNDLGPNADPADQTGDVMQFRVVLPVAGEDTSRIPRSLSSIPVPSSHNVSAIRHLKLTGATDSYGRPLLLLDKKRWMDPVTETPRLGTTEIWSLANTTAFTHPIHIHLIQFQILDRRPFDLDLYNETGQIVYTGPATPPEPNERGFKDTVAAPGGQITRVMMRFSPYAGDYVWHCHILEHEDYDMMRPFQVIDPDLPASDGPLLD
In kind it is biochemical. Conditions: 30 °C. The text has this:
spectrophotometric oxidation, Michaelis-Menten fit with uncompetitive substrate inhibition on B. coagulans LMCO (CotA)

Substrate in data set [1]: CCn1c(=NN=c2sc3cc(S(=O)(=O)O)ccc3n2CC)sc2cc(S(=O)(=O)O)ccc21
The class given is biochemical, Shouchella clausii. Conditions: pH 4.0, McIlvaine buffer, 30 °C, pH 4.0. The text has this: (§1) spectrophotometric oxidation, Michaelis-Menten fit with uncompetitive substrate inhibition on B. clausii LMCO (CotA)

Substrate in data set [2]: COc1cccc(OC)c1O
The class given is biochemical, Shouchella clausii. Conditions: pH 8.0, McIlvaine buffer, 30 °C, pH 8.0.
From the text: as §1

At B. coagulans LMCO (CotA) (pH 4.0, McIlvaine buffer), `CCn1c(=NN=c2sc3cc(S(=O)(=O)O)ccc3n2CC)sc2cc(S(=O)(=O)O)ccc21` [ABTS, 2′-azino-bis(3-ethylbenzthiazoline-6-sulphonic acid)] returned a B. coagulans of 0.94 ± 0.11 mM.

Molecule `COc1cccc(OC)c1O` [2,6-DMP, 2,6-dimethoxyphenol] displayed a B. coagulans at B. coagulans LMCO (CotA) (pH 7.5, McIlvaine buffer) of 36 ± 9.8 mM.

B1: B. clausii LMCO (CotA) (Shouchella clausii KSM-K16) (protein)
chain: MELEKFVDPMPIMKTAIPKKTSKDGDYYEIEMKEFSQKLHRDLNPTRLWGYDGQFPGPTIEVMRGKPARIKWMNNLPDTHFLPIDRSIHHVAHEPEVRTVVHLHGSETTPASDGYPEAWFTKDFAEVGSFFEQETYEYPNDQRAATLWYHDHAMGITRLNVYAGLSGLYIIRDPREEQLNLPKGEFDIPLLIQDRSFNDDGSLFYPAQPANPAPNLPNPSVLPFFVGDTILVNGKVWPYLQVEPRKYRFRILNGSNSRSYQLALDSEAPFYQIASDGGLLRRTVSLQAFDIRPAERIEAIIDFSKFEGQTITLKNNASTDATADVMQFQVVLPLSGEDTSIIPQNLSYIPSLQQNDVKRIRNLKISGTTDEYGRPLLLLNNKLWSDPVEEKPCLGTTEIWSFVNVTNVPHPMHIHLVQFQLLDHRAFNVELYNENGQIELVGPTIPPKINERGWKDTITAPAGQITRVIARFAPFSGYYVWHCHILEHEDYDMMRPFVVIDPKTEKERR
Turning to B1, the Km was found to be 0.132 ± 0.011 mM in data set [1] and 8.535 ± 2.394 mM in data set [2]. Further, the values for the kcat in data set [1] and in data set [2] were 90 ± 2.3 s⁻¹ and 65 ± 15.2 s⁻¹, respectively.
